According to the supplement of paper PMC10724198:
± gives the standard deviation of the averaged measurements.

Columns and labels:
[1] = test system: Saccharomyces cerevisiae; test: protein stability index of tFT-peptide fusion (C-terminal peptide) (PSI (0-1 scale)); higher = more stable (slower turnover); settings: genetic background: wild type; temperature: 30 C
[2] = test system: Saccharomyces cerevisiae; test: as above
Protocol: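 MPS profiling in S. cerevisiae of the tFT-X12 degron library: putative degron peptides plus stable controls, 12 aa, fused to the C-terminus of a sfGFP-mCherry timer. Cells are FACS-sorted into 8 mCherry/sfGFP bins and deep-sequenced. PSI runs from 0 (unstable) to 1 (stable). Backgrounds are wild type, das1Δ and doa10Δ at 30 °C, and wild type, das1Δ, cdc34-1 and cdc53-1 at 37 °C; 2-3 technical replicates each.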

[3] = genetic background: cdc34-1, temperature: 37 C
[4] = genetic background: cdc53-1, temperature: 37 C
[5] = genetic background: das1 deletion, temperature: 30 C
[6] = genetic background: das1 deletion, temperature: 37 C
[7] = genetic background: doa10 deletion, temperature: 30 C
[8] = genetic background: wild type, temperature: 30 C
[9] = genetic background: wild type, temperature: 37 C
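Also: PSI is a weighted mean of sequencing reads over stability bins, variants kept only with over 10 reads, mCherry proximal and sfGFP distal, peptide attached via GGGS linker.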

Sequence	protein stability index [1]	protein stability index [2, 3]	protein stability index [2, 4]	protein stability index [2, 5]	protein stability index [2, 6]	protein stability index [2, 7]	protein stability index [2, 8]	protein stability index [2, 9]
VFGWWSVVLRVA	0.109 ± 0.029	0.0612 ± 0.0012	0.0938 ± 0.009	0.166 ± 0.027	0.249 ± 0.0082	0.0577 ± 0.014	0.0694 ± 0.017	0.0612 ± 0.011
GFSSRWLMQYMV	0.369 ± 0.0081	0.585 ± 0.05	0.737 ± 0.0088	0.665 ± 0.021	0.747 ± 0.0094	0.326 ± 0.014	0.375 ± 0.11	0.462 ± 0.042
EQMRRYILVSYV	0.352 ± 0.033	0.522 ± 0.021	0.609 ± 0.025	0.427 ± 0.019	0.5998 ± 0.0036	0.198 ± 0.0082	0.243 ± 0.02	0.4255 ± 0.0019
LCTCFLVLLLWC	0.337 ± 0.1	0.387 ± 0.032	0.404 ± 0.02	0.339 ± 0.024	0.46 ± 0.01	0.34 ± 0.01	0.315 ± 0.018	0.4407 ± 0.0027
FLFFRFLVGCCF	0.3731 ± 0.003	0.406 ± 0.0083	0.396 ± 0.0095	0.339 ± 0.032	0.4545 ± 0.0039	0.29943 ± 0.00022	0.311 ± 0.0085	0.427 ± 0.017
LFPVASLCLART	0.529 ± 0.065	0.643 ± 0.028	0.648 ± 0.048	0.527 ± 0.036	0.663 ± 0.0042	0.513 ± 0.022	0.524 ± 0.023	0.659 ± 0.057
SHWSMQATLQLV	0.469 ± 0.016	0.617 ± 0.046	0.694 ± 0.025	0.568 ± 0.021	0.6866 ± 0.0046	0.443 ± 0.034	0.468 ± 0.011	0.601 ± 0.012
RFCLLFVVAGGV	0.457 ± 0.017	0.516 ± 0.0057	0.527 ± 0.024	0.343 ± 0.019	0.546 ± 0.0069	0.35 ± 0.035	0.371 ± 0.018	0.516 ± 0.015
LCFVCLWGYLGV	0.479 ± 0.044	0.388 ± 0.023	0.471 ± 0.011	0.322 ± 0.034	0.528 ± 0.023	0.307 ± 0.0054	0.323 ± 0.022	0.4791 ± 0.0038
WFSVIMLCYILP	0.253 ± 0.004	0.204 ± 0.023	0.22 ± 0.028	0.23 ± 0.042	0.3397 ± 0.0018	0.233 ± 0.027	0.198 ± 0.014	0.248 ± 0.036
RLVYSQKRWSLF	0.24 ± 0.006	0.673 ± 0.07	0.764 ± 0.032	0.653 ± 0.014	0.76378 ± 0.0006	0.167 ± 0.037	0.181 ± 0.032	0.451 ± 0.027
CRRLCGWLFVCV	0.46 ± 0.0068	0.466 ± 0.024	0.522 ± 0.025	0.387 ± 0.037	0.548 ± 0.014	0.396 ± 0.0074	0.38 ± 0.025	0.513 ± 0.036
FFFLILFPLSYS	0.49 ± 0.072	0.4518 ± 0.0042	0.526 ± 0.044	0.376 ± 0.028	0.5472 ± 0.0028	0.3517 ± 0.0033	0.372 ± 0.0098	0.513 ± 0.041
QCKHIVRKIKLH	0.186 ± 0.025	0.426 ± 0.089	0.61 ± 0.11	0.617 ± 0.014	0.737 ± 0.018	0.117 ± 0.016	0.0952 ± 0.034	0.147 ± 0.014
LVSYHKMAISSF	0.47 ± 0.051	0.595 ± 0.017	0.58 ± 0.019	0.436 ± 0.022	0.626 ± 0.047	0.421 ± 0.0095	0.44 ± 0.022	0.571 ± 0.0095
ERFRLYFRPGIF	0.234 ± 0.091	0.635 ± 0.036	0.7213 ± 0.00075	0.653 ± 0.031	0.709 ± 0.021	0.296 ± 0.03	0.332 ± 0.015	0.58 ± 0.008
GGVVGGVGVYDG	0.707 ± 0.019	0.702 ± 0.012	0.7445 ± 0.0015	0.635 ± 0.016	0.748 ± 0.019	0.65 ± 0.021	0.65 ± 0.02	0.706 ± 0.015
RDRHFKIQTCIM	0.388 ± 0.0046	0.662 ± 0.016	0.721 ± 0.017	0.648 ± 0.02	0.717 ± 0.014	0.24 ± 0.017	0.246 ± 0.039	0.515 ± 0.035
YNTVALRITLIT	0.348 ± 0.03	0.444 ± 0.017	0.538 ± 0.013	0.329 ± 0.05	0.5018 ± 0.0042	0.209 ± 0.00078	0.228 ± 0.017	0.364 ± 0.0086
